The results in this text go back to patent US20130101549A1 (Biogen, published 2013).

Test [1] addresses human LTβR on tumor cells (human, UniProt P36941 31-435). The experiment in a line: cell-based or functional assay.
Test [2] addresses T1, human HER2-Fc (human, UniProt P04626 23-652).
T1 construct: Bought from R&D Systems: homodimeric fusion of the HER2 extracellular domain and human IgG1 Fc; also called human ErbB2-Fc; rhErbB2-Fc; not shown: Fc fragment of human IgG1
The experiment in a line: ELISA on coated HER2-Fc. On the procedure: (§1) Human and murine ErbB2-Fc were obtained from R&D Systems. Wells of 96-well plates were coated with 2 ug/ml or 0.2 ug/ml of human or murine HER2-Fc by incubation overnight at 4-8° C. with either of these six proteins (80 ul/well of a 0.2 or 2 ug/ml solution in PBS). Wells were emptied, filled completely with a solution of PBS with 1% BSA (blocking buffer) and incubated at room temperature for 1 hour. Wells were emptied, washed twice PBS containing 0.05% Tween 20 (PBST) and filled with the samples (80 ul/well of 3× dilution series of the standard and supernatants in blocking buffer) prepared in another 96-well plate. After a 2-hour incubation at room temperature, the wells were emptied, washed three times with PBST and filled with a solution of HRP-conjugated goat pAbs anti-human kappa chain (80 ul/well of a 2000-fold dilution in blocking buffer). After 1-hour incubation, the wells were emptied and filled with a solution of HRP substrate prepared freshly. The color was left to develop for 3 minutes and was stopped by addition of an equal volume of 1N H₂SO₄. Absorbance was measured at 450 nm using a Plate Reader (SpectraMax, Molecular Devices). The data was processed and graphs were created using SoftMax Pro software.
(In general: ELISA stands for enzyme-linked immunosorbent assay.)

The target of test [3] is T2, human HVEM-Ig (human, UniProt Q92956 39-202).
T2 construct: Expressed and purified in house; also called HVEM-Fc; Herpes virus entry mediator-Ig
T2 sequence (looked up): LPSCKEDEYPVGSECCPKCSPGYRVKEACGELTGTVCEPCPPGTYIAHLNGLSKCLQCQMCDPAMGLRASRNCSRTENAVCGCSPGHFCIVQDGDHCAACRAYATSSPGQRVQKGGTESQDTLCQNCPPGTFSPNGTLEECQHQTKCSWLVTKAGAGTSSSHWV
The experiment in a line: ELISA on coated HVEM-Ig. The procedure:
as §1
Human and murine HVEM-Ig were expressed and purified in house.

For test [4], the target named is T3, human LTβR-Ig (human, UniProt P36941 31-227).
T3 construct: Expressed and purified in house; also called hLTbR-Ig; human LTBR-Ig
T3 sequence (P36941 31-227): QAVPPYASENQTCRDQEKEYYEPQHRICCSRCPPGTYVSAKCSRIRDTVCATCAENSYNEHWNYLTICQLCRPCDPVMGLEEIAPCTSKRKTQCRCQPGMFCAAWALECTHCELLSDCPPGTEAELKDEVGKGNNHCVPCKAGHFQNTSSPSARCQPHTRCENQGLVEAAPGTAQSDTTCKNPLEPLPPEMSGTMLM
The experiment in a line: ELISA on coated LTbR-Ig. The procedure: as §1
Human and murine LTBR-Ig were expressed and purified in house.

Test [5] deals with T4, human HER2/ErbB2 on cells (human, UniProt P04626 23-1255).
T4 construct: whole, on cells; also called hHER2/ErbB2; wild type HER2/ErbB
The experiment in a line: FACS on HER2-expressing cells.

Test [6] has as its target T2, human HVEM-Ig. The experiment in a line: FACS (HVEM column of Table 2; format not told there).
In test [7] the target is T3, human LTβR-Ig. The experiment in a line: FACS (LTbR column of Table 2; format not told there).
Test [8] concerns the target T1, human HER2-Fc. The experiment in a line: Octet biolayer interferometry, receptor-Fc on anti-human Fc biosensor, culture supernatant. On the procedure: (§2) Anti-human Fc-specific biosensors (Fortebio SKU 18-0001) were hydrated in OB (1×PBS supplemented with 1 mg/ml BSA, 0.05% NaN₃, and 0.02% TWEEN 20) for at least five minutes prior to assays. For each assay, the respective receptor—Fc fusion was diluted to 10 μg/ml in OB and allowed to bind to the biosensors for five minutes. The sensors were then incubated in the indicated culture supernatant for an additional five minutes, and subsequently transferred to fresh wells […].
On the technique in general: BLI is a label-free optical method that tracks binding on a fibre tip over time.

For test [9], the target named is T3, human LTβR-Ig. The test is described as above. On the procedure:
as §2

For test [10], the target named is T2, human HVEM-Ig. The description is as above. On the procedure:
as §2

The target in test [11] is T5, murine HER2-Fc (mouse; human, UniProt P70424 23-653).
T5 construct: extracellular domain; Bought from R&D Systems; also called murine ErbB2-Fc; not shown: Fc fragment of human IgG1
T5 sequence (P70424 23-653): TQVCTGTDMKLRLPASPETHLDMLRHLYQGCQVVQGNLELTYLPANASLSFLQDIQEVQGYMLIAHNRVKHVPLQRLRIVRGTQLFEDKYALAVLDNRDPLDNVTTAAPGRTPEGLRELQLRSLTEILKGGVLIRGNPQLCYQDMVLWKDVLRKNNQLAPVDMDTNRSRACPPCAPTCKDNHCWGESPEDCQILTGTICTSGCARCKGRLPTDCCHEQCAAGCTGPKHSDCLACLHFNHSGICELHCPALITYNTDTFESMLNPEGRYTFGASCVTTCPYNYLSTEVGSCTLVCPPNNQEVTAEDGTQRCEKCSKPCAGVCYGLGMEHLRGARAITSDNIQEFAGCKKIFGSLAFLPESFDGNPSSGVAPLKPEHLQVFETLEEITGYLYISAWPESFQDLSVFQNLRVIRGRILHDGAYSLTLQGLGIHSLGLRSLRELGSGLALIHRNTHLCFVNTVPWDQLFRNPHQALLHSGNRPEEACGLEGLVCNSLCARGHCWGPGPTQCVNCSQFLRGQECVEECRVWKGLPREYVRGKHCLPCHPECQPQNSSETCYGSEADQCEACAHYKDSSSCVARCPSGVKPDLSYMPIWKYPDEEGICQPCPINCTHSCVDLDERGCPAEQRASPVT
The experiment in a line: ELISA on coated muHER2-Fc, HRP anti-human kappa; the number is C of the printed 4-P fit (A 0.005, B 1.068, D 0.84, R^2 0.999); x axis: Fab equivalent concentration.

In test [12] the target is T1, human HER2-Fc. The experiment in a line: ELISA on coated huHER2-Fc, HRP anti-human kappa; the number is C of the printed 4-P fit (A -0.059, B 0.832, D 1.098, R^2 0.998); x axis: Fab equivalent concentration.
The target of test [13] is T1, human HER2-Fc. The experiment in a line: ELISA on coated huHER2-Fc, HRP anti-human kappa; the number is C of the printed 4-P fit (A 0.006, B 1.142, D 0.89, R^2 1); x axis: Fab equivalent concentration.
The target in test [14] is T5, murine HER2-Fc. The experiment in a line: ELISA on coated muHER2-Fc, HRP anti-human kappa; the number is C of the printed 4-P fit (A 0.008, B 1.027, D 0.896, R^2 1); x axis: Fab equivalent concentration. The procedure:
as §1, with “Wells” for “Human and murine ErbB2-Fc were obtained from R&D Systems. Wells”, “coated” for “coated with 2 ug/ml or 0.2 ug/ml of human or murine HER2-Fc”, “goat antibodies against human kappa chain” for “either of these six proteins”, “5” for “0.2 or 2”
Human and murine HER2-Fc (homodimeric fusion proteins consisting of the extracellular domain of HER2 and the Fc fragment of human IgG1) were obtained from R&D Systems. […]

Test [15] addresses T6, human LTBR-mIgG fusion.
T6 construct: kept apart from m25 (human Fc); not shown: exact end of the LTBR part
The experiment in a line: sandwich ELISA after incubation at 200 ng/ml in human serum (cold or 37°C overnight): HER2-Fc on the plate, human LTBR-mIgG, HRP anti-mouse IgG; the signal needs both bindings at once. The procedure: An ELISA assay was developed to detect LIGHT-Ab fusions after incubation with human sera. Briefly, 200 ng/mL of LIGHT-Ab fusions were incubated overnight in human serum at 37° C. The serum was assayed in sandwich ELISA as follows. HER2-Fc was immobilized to a solid surface, and was used to capture the LIGHT-Ab fusions. The serum incubated fusion proteins were added to the solid surface. Detection was effected using a human LTBR-mIgG fusion to bind to the LIGHT moiety of the fusion. Horseradish peroxidase (HRP) labeled anti-mouse IgG was used to detect bound LIGHT-Ab fusions.

The EC50 is the concentration that produces a half-maximal response. In general, koff refers to the first-order rate constant of dissociation.

human LTβR on tumor cells, sequence (P36941 31-435): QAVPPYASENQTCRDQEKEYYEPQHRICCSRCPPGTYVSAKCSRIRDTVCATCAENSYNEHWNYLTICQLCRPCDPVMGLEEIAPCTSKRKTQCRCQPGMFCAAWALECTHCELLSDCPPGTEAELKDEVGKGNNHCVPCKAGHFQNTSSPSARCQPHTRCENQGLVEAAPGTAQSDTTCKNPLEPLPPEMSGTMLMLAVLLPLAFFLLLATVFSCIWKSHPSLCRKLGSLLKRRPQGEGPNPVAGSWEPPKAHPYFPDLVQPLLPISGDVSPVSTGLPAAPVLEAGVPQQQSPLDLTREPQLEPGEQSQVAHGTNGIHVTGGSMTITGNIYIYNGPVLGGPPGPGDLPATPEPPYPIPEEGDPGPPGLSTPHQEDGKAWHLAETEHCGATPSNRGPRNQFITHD
T6 sequence (chain, as listed by the source limits assumed): as the sequence (P36941 31-227) above

B1: 71F10 Fab-hLIGHT fusion with the delta 4 linker (BIIB71F10-130) (other)
heavy: EVQLLESGGGLVQPGGSLRLSCAASGFTFSSYGMVWVRQAPGKGLEWVSSISSSGGLTWYADSVKGRFTISRDNSKNTLYLQMNSLRAEDTAVYYCASPPGIAVARDYWGQGTLVTVSSASTKGPSVFPLAPSSKSTSGGTAALGCLVKDYFPEPVTVSWNSGALTSGVHTFPAVLQSSGLYSLSSVVTVPSSSLGTQTYICNVNHKPSNTKVDKKVEPKSCDKLHWRLGEMVTRLPDGPAGSWQERRSHEVNPAAHLTGANSSLTGSGGPLLWETQLGLAFLRGLSYHDGALVVTKAGYYYIYSKVQLGGVGCPLGLASTITHGLYKRTPRYPEELELLVSQQSPCGRATSSSRVWWDSSFLGGVVHLEAGEEVVVRVLDERLVRLRDGTRSYFGAFMV
light: DIQMTQSPSSLSASVGDRVTITCRASQGISNYLAWYQQKPGKVPKLLIYAASTLQSGVPSRFSGSGSGTDFTLTISSLQPEDVATYYCQKYNSALLTFGGGTKVEIKRTVAAPSVFIFPPSDEQLKSGTASVVCLLNNFYPREAKVQWKVDNALQSGNSQESVTEQDSKDSTYSLSSTLTLSKADYEKHKVYACEVTHQGLSSPVTKSFNRGEC
notes: Fab heavy chain - linker - human LIGHT extracellular part; assembles as a trimer of Fab-LIGHT units; also called pBIIB71F10-130; LIGHT fusion #130
B1: in [1], the “fold difference of gene expression, treated/untreated HT29 cells (qRT-PCR): CCL2 (MCP-1)” value came out at 1050 fold; the “fold difference of gene expression, treated/untreated HT29 cells (qRT-PCR): CCL5 (RANTES)” value was found to be 1220 fold; the “fold difference of gene expression, treated/untreated HT29 cells (qRT-PCR): CCL7 (MCP-3)” value was -527 fold; the “fold difference of gene expression, treated/untreated HT29 cells (qRT-PCR): CCL21” value came to 546 fold. Besides, in test [1], the “fold difference of gene expression, treated/untreated HT29 cells (qRT-PCR): CCR4” value stood at 1650 fold; the “fold difference of gene expression, treated/untreated HT29 cells (qRT-PCR): CXCL2” value is 1130 fold; the “fold difference of gene expression, treated/untreated HT29 cells (qRT-PCR): CXCL3” value was 1090 fold; the “fold difference of gene expression, treated/untreated HT29 cells (qRT-PCR): CXCL5 (ENA-78/LIX)” value was 1810 fold. Moreover, in [1], the “fold difference of gene expression, treated/untreated HT29 cells (qRT-PCR): CXCL9” value was found to be 675 fold; the “fold difference of gene expression, treated/untreated HT29 cells (qRT-PCR): CXCL10 (IP-10)” value is 5270 fold; the “fold difference of gene expression, treated/untreated HT29 cells (qRT-PCR): CXCL11 (I-TAC/IP9)” value turned out to be 1730 fold; the “fold difference of gene expression, treated/untreated HT29 cells (qRT-PCR): IFNA2” value is 193 fold. In test [1], the “fold difference of gene expression, treated/untreated HT29 cells (qRT-PCR): IL5” value stood at 940 fold; the “fold difference of gene expression, treated/untreated HT29 cells (qRT-PCR): IL8” value was found to be 373 fold; the “fold difference of gene expression, treated/untreated HT29 cells (qRT-PCR): IL10RA” value is 3440 fold; the “fold difference of gene expression, treated/untreated HT29 cells (qRT-PCR): LTB” value was determined as 2910 fold. Also, the “fold difference of gene expression, treated/untreated HT29 cells (qRT-PCR): TNF” value in test [1] turned out to be 7370 fold. This molecule displayed an EC50 in [2] of 0.05 nM. Besides, the EC50 in test [3] came out at 0.01 nM. The molecule also displayed an EC50 in test [4] of 0.01 nM. Besides, in test [5], the concentration for a half-maximal effect (EC50) came out at 0.5 nM. Also, a half-maximal response in test [6] (EC50) required 0.5 nM. Besides, the EC50 in test [7] was 0.2 nM. Moreover, in test [8], the koff was found to be 0.000112 s⁻¹. The koff in test [9] came out at 0.000168 s⁻¹. In addition, the koff in test [10] was found to be 0.000122 s⁻¹. In addition, the EC50 in test [11] was found to be 0.0114 µg/mL. The EC50 in [12] worked out at 0.00955 µg/mL.

B2: 71F10 Fab-hLIGHT fusion with the G4S delta 4 linker (BIIB71F10-131) (other)
heavy: EVQLLESGGGLVQPGGSLRLSCAASGFTFSSYGMVWVRQAPGKGLEWVSSISSSGGLTWYADSVKGRFTISRDNSKNTLYLQMNSLRAEDTAVYYCASPPGIAVARDYWGQGTLVTVSSASTKGPSVFPLAPSSKSTSGGTAALGCLVKDYFPEPVTVSWNSGALTSGVHTFPAVLQSSGLYSLSSVVTVPSSSLGTQTYICNVNHKPSNTKVDKKVEPKSCDKGGGGSLHWRLGEMVTRLPDGPAGSWQERRSHEVNPAAHLTGANSSLTGSGGPLLWETQLGLAFLRGLSYHDGALVVTKAGYYYIYSKVQLGGVGCPLGLASTITHGLYKRTPRYPEELELLVSQQSPCGRATSSSRVWWDSSFLGGVVHLEAGEEVVVRVLDERLVRLRDGTRSYFGAFMV
light: DIQMTQSPSSLSASVGDRVTITCRASQGISNYLAWYQQKPGKVPKLLIYAASTLQSGVPSRFSGSGSGTDFTLTISSLQPEDVATYYCQKYNSALLTFGGGTKVEIKRTVAAPSVFIFPPSDEQLKSGTASVVCLLNNFYPREAKVQWKVDNALQSGNSQESVTEQDSKDSTYSLSSTLTLSKADYEKHKVYACEVTHQGLSSPVTKSFNRGEC
notes: Trimer of Fab-LIGHT units; also called pBIIB71F10-131
For the molecule B2, the EC50 in test [2] worked out at 0.05 nM; in [3], 0.01 nM; in [4] it was 0.01 nM; in test [5], 0.5 nM; in test [6], 0.5 nM; in test [7], 0.2 nM. Besides, the EC50 was 0.00608 µg/mL in test [13] and 0.0139 µg/mL in test [14]. Moreover, the koff in test [8] worked out at 0.000307 s⁻¹; in test [9], 0.000183 s⁻¹. In addition, in test [15], the binding result is listed as “binds”.
